# Laboratory results: publication PMC10190621 (Advanced Science, 2023)
# B1: GST-tagged NRF2 (N-terminal amino acids 1-84, containing domains interacting with KEAP1) (domain or fragment, human, UniProt Q16236 1-84, looked up)
# chain: MMDLELPPPGLPSQQDMDLIDILWRQDIDLGVSREVFDFSQRRKEYELEKQKKLEKERQEQLQKEQEKAFFAQLQLDEETGEFL
# notes: N-terminal domain (residues 1-84) of human NRF2; plasmid by Tsingke Biotechnology; also called GST-NRF2; NRF2 protein; source: E. coli BL21 (DE3), purified (GSH column, gel filtration)
# Target: T1, His-tagged KEAP1 (C-terminal amino acids 312-624, containing the Kelch domain) (human, UniProt Q14145 312-624)
# T1 construct: plasmid by Tsingke Biotechnology; also called His-KEAP1; Kelch domain of KEAP1; source: E. coli BL21 (DE3), purified (Ni-NTA column, gel filtration)
# Assay: pull-down; His pulldown, competition: 10 µg His-KEAP1 on His immunomagnetic beads, mixed with NRF2 and 5 or 10 µg DDRGK1 protein at 4 °C overnight, washed three times, immunoblot
# Conditions: both partners purified
# T1 sequence (Q14145 312-624): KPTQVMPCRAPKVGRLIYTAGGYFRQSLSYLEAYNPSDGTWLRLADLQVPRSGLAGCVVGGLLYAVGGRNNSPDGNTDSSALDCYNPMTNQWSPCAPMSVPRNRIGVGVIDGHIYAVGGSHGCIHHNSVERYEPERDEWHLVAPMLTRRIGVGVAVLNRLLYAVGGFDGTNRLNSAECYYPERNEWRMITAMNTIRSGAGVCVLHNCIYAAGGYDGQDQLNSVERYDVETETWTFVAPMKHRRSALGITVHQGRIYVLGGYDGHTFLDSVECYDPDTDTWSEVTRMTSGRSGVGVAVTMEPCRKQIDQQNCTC
binder,measurement,value
B1,binding result,binds
